# According to patent publication US8609413B2, “Neurons, astrocytes and oligodendrocytes differentiated from a mammalian pluripotent or neural stem cells exposed to a pyridine deriviative” (Research Development Foundation, priority 2007, dated 2013):
# Tested on: human ESC-derived NPC / ESC aggregates
# Assay: Air/liquid interface three-dimensional culture with added factors
# Format: cell-based
# Details: exogenously added factor
# From the text: Air/liquid interface expansion/differentiation of NPC may be performed via the following protocol. One or more rosettes-enriched clusters may be manually removed and multiple clusters (e.g., about 5-10 clusters) may be plated on a hydrophilic polytetrafluoroethylene (PTFE) membrane (e.g., 6 mm diameter, 0.4 μm, BioCell-Interface, La Chaux-de-Fonds, Switzerland). This membrane may be deposited on a Millicell®-CM (0.4 μm) Culture Plate Insert (Millipore) (FIG. 5A). N2 medium may preferably be added (e.g., about 1 ml) underneath the membrane insert.
# Air/liquid interface expansion/differentiation of NPC. Rosettes-enriched cluster were manually removed and 5-10 clusters were plated on a hydrophilic polytetrafluoroethylene (PTFE) membrane (6 mm diameter, 0.4 μm, BioCell-Interface, La Chaux-de-Fonds, Switzerland). This membrane was deposited on a Millicell®-CM (0.4 μm) Culture Plate Insert (Millipore) (FIG. 1). One ml of N2 medium was added underneath the membrane insert.
molecule,measurement,value
"Noggin: a polypeptide playing a key role in neural induction (protein, UniProt Q13253 28-232, looked up) Noggin: QHYLHIRPAPSDNLPLVDLIEHPDPIFDPKEKDLNETLLRSLLGGHYDPGFMATSPPEDRPGGGGGAAGGAEDLAELDQLLRQRPSGAMPSEIKGLEFSEGLAQGKKQRLSKKLRRKLQMWLWSQTFCPVLYAWNDLGSRFWPRYVKVGSCFSKRSCSVPEGMVCKPSKSVHLTVLRWRCQRRGGQRCGWIPIQYPIISECKCSC",phenotype of engineered tissue,had no influence on the self-organization and phenotype
